Experimental data taken from PMC8751651 (ACS Omega, 2021).
Where no end group is shown, it is not given here. The star is where a group is joined. Biotin = O=C1N[C@H]2[C@H](CS[C@H]2CCCCC(=O)*)N1; Cam = NC(=O)C*

Target: Recombinant SARS-CoV-2 spike RBD protein (SARS-CoV-2, UniProt P0DTC2)
Test: SPR

Binder	Kd
Biotin-SC(Cam)FDFLNWASCDGGGS [biotinylated peptide 6 (second synthesis)]	~19 µM
Biotin-SCFDFLNWASCDGGGS (cysteine pairing not given here) [biotinylated peptide 1 (second synthesis)]	5.8 µM
